Reference: the supplement of paper PMC9112550, “Optimization of the antimicrobial peptide Bac7 by deep mutational scanning” (BMC Biology, 2022)

Test system: Escherichia coli TOP10
Assay: shrunken log2 fold change of peptide-encoding DNA abundance (4.5 h post-induction vs induction); higher = less antimicrobial activity (less host growth inhibition)
Details: time post-induction: 4.5 h; library: site-saturation at positions 5, 18, 19, 20
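Note: peptides expressed intracellularly from a pBAD plasmid library in pooled LB shake-flask culture, induced with 0.3% L-arabinose, DNA abundance read by NGS, three biological replicates, DESeq2 with apeglm shrinkage.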

RRIRPRPPRLPRPRPRPNNMPRP
shrunken log2 fold change: -0.412

RRIRPRPPRLPRPRPRPNSGPRP
shrunken log2 fold change: 0.0788

RRIRPRPPRLPRPRPRPNTAPRP
shrunken log2 fold change: -0.23

RRIRPRPPRLPRPRPRPNVAPRP
shrunken log2 fold change: -0.215

RRIRPRPPRLPRPRPRPNVDPRP
shrunken log2 fold change: -0.0229

RRIRPRPPRLPRPRPRPNWQPRP
shrunken log2 fold change: 0.131

RRIRPRPPRLPRPRPRPNYMPRP
shrunken log2 fold change: -0.737

RRIRPRPPRLPRPRPRPNYYPRP
shrunken log2 fold change: -0.468

RRIRPRPPRLPRPRPRPPAVPRP
shrunken log2 fold change: 0.37

RRIRPRPPRLPRPRPRPPDDPRP
shrunken log2 fold change: 0.142

RRIRPRPPRLPRPRPRPPDEPRP
shrunken log2 fold change: 0.444

RRIRPRPPRLPRPRPRPPDQPRP
shrunken log2 fold change: 0.601

RRIRPRPPRLPRPRPRPPDWPRP
shrunken log2 fold change: 0.577

RRIRPRPPRLPRPRPRPPFDPRP
shrunken log2 fold change: 0.228

RRIRPRPPRLPRPRPRPPHAPRP
shrunken log2 fold change: 0.589

RRIRPRPPRLPRPRPRPPHMPRP
shrunken log2 fold change: 0.214

RRIRPRPPRLPRPRPRPPIAPRP
shrunken log2 fold change: 0.27

RRIRPRPPRLPRPRPRPPLMPRP
shrunken log2 fold change: 0.199

RRIRPRPPRLPRPRPRPPPDPRP
shrunken log2 fold change: 0.622

RRIRPRPPRLPRPRPRPPPHPRP
shrunken log2 fold change: 0.657

RRIRPRPPRLPRPRPRPPQLPRP
shrunken log2 fold change: 0.378

RRIRPRPPRLPRPRPRPPRHPRP
shrunken log2 fold change: 0.278

RRIRPRPPRLPRPRPRPPRLPRP
shrunken log2 fold change: 0.406

RRIRPRPPRLPRPRPRPPTSPRP
shrunken log2 fold change: 0.276

RRIRPRPPRLPRPRPRPPVLPRP
shrunken log2 fold change: -0.0339

RRIRPRPPRLPRPRPRPPWAPRP
shrunken log2 fold change: 1.32

RRIRPRPPRLPRPRPRPPWEPRP
shrunken log2 fold change: 0.0889

RRIRPRPPRLPRPRPRPPYGPRP
shrunken log2 fold change: -0.268

RRIRPRPPRLPRPRPRPPYNPRP
shrunken log2 fold change: -0.495

RRIRPRPPRLPRPRPRPQAMPRP
shrunken log2 fold change: 0.132

RRIRPRPPRLPRPRPRPQASPRP
shrunken log2 fold change: -0.137

RRIRPRPPRLPRPRPRPQGNPRP
shrunken log2 fold change: -0.146

RRIRPRPPRLPRPRPRPQICPRP
shrunken log2 fold change: -0.0262

RRIRPRPPRLPRPRPRPQKEPRP
shrunken log2 fold change: 0.0431

RRIRPRPPRLPRPRPRPQKKPRP
shrunken log2 fold change: -0.113

RRIRPRPPRLPRPRPRPQLGPRP
shrunken log2 fold change: 0.159

RRIRPRPPRLPRPRPRPQLNPRP
shrunken log2 fold change: -0.0703

RRIRPRPPRLPRPRPRPQLRPRP
shrunken log2 fold change: -0.0759

RRIRPRPPRLPRPRPRPQNHPRP
shrunken log2 fold change: 0.181

RRIRPRPPRLPRPRPRPQPRPRP
shrunken log2 fold change: 0.603

RRIRPRPPRLPRPRPRPQQHPRP
shrunken log2 fold change: -0.0726

RRIRPRPPRLPRPRPRPQQMPRP
shrunken log2 fold change: -0.00373

RRIRPRPPRLPRPRPRPQQTPRP
shrunken log2 fold change: 0.183

RRIRPRPPRLPRPRPRPQQWPRP
shrunken log2 fold change: 0.182

RRIRPRPPRLPRPRPRPQVWPRP
shrunken log2 fold change: 0.202

RRIRPRPPRLPRPRPRPQYTPRP
shrunken log2 fold change: -0.813

RRIRPRPPRLPRPRPRPRCMPRP
shrunken log2 fold change: 0.0856

RRIRPRPPRLPRPRPRPRCQPRP
shrunken log2 fold change: 0.273

RRIRPRPPRLPRPRPRPRDKPRP
shrunken log2 fold change: 0.144

RRIRPRPPRLPRPRPRPREFPRP
shrunken log2 fold change: 0.485

RRIRPRPPRLPRPRPRPREGPRP
shrunken log2 fold change: 0.891

RRIRPRPPRLPRPRPRPRGRPRP
shrunken log2 fold change: 0.713

RRIRPRPPRLPRPRPRPRHHPRP
shrunken log2 fold change: -0.0806

RRIRPRPPRLPRPRPRPRHMPRP
shrunken log2 fold change: 0.116

RRIRPRPPRLPRPRPRPRINPRP
shrunken log2 fold change: -0.16

RRIRPRPPRLPRPRPRPRIQPRP
shrunken log2 fold change: 0.389

RRIRPRPPRLPRPRPRPRKAPRP
shrunken log2 fold change: 0.0787

RRIRPRPPRLPRPRPRPRKRPRP
shrunken log2 fold change: 0.198

RRIRPRPPRLPRPRPRPRLIPRP
shrunken log2 fold change: 0.292

RRIRPRPPRLPRPRPRPRLQPRP
shrunken log2 fold change: 0.176

RRIRPRPPRLPRPRPRPRMAPRP
shrunken log2 fold change: 0.278

RRIRPRPPRLPRPRPRPRNFPRP
shrunken log2 fold change: 0.192

RRIRPRPPRLPRPRPRPRNGPRP
shrunken log2 fold change: -0.0237

RRIRPRPPRLPRPRPRPRNTPRP
shrunken log2 fold change: 1.19

RRIRPRPPRLPRPRPRPRPVPRP
shrunken log2 fold change: 0.528

RRIRPRPPRLPRPRPRPRRNPRP
shrunken log2 fold change: -0.0266

RRIRPRPPRLPRPRPRPRSHPRP
shrunken log2 fold change: 0.16

RRIRPRPPRLPRPRPRPRSPPRP
shrunken log2 fold change: 0.592

RRIRPRPPRLPRPRPRPRVGPRP
shrunken log2 fold change: 0.543

RRIRPRPPRLPRPRPRPRWKPRP
shrunken log2 fold change: 0.176

RRIRPRPPRLPRPRPRPRWWPRP
shrunken log2 fold change: 0.0553

RRIRPRPPRLPRPRPRPRYNPRP
shrunken log2 fold change: -0.522

RRIRPRPPRLPRPRPRPRYVPRP
shrunken log2 fold change: -0.24

RRIRPRPPRLPRPRPRPSARPRP
shrunken log2 fold change: 0.186

RRIRPRPPRLPRPRPRPSAVPRP
shrunken log2 fold change: 0.0719

RRIRPRPPRLPRPRPRPSCEPRP
shrunken log2 fold change: -0.386

RRIRPRPPRLPRPRPRPSCHPRP
shrunken log2 fold change: -0.31

RRIRPRPPRLPRPRPRPSDDPRP
shrunken log2 fold change: -0.0663

RRIRPRPPRLPRPRPRPSEMPRP
shrunken log2 fold change: -0.216

RRIRPRPPRLPRPRPRPSFLPRP
shrunken log2 fold change: -0.271

RRIRPRPPRLPRPRPRPSFMPRP
shrunken log2 fold change: -0.377

RRIRPRPPRLPRPRPRPSFRPRP
shrunken log2 fold change: -0.142

RRIRPRPPRLPRPRPRPSGRPRP
shrunken log2 fold change: 0.0933

RRIRPRPPRLPRPRPRPSHFPRP
shrunken log2 fold change: -0.399

RRIRPRPPRLPRPRPRPSHVPRP
shrunken log2 fold change: -0.544

RRIRPRPPRLPRPRPRPSIKPRP
shrunken log2 fold change: -0.33

RRIRPRPPRLPRPRPRPSIMPRP
shrunken log2 fold change: -0.552

RRIRPRPPRLPRPRPRPSIYPRP
shrunken log2 fold change: -0.584

RRIRPRPPRLPRPRPRPSKYPRP
shrunken log2 fold change: -0.528

RRIRPRPPRLPRPRPRPSLFPRP
shrunken log2 fold change: -0.344

RRIRPRPPRLPRPRPRPSLWPRP
shrunken log2 fold change: 0.471

RRIRPRPPRLPRPRPRPSMLPRP
shrunken log2 fold change: -0.186

RRIRPRPPRLPRPRPRPSMRPRP
shrunken log2 fold change: 0.501

RRIRPRPPRLPRPRPRPSNGPRP
shrunken log2 fold change: -0.113

RRIRPRPPRLPRPRPRPSPMPRP
shrunken log2 fold change: -0.259

RRIRPRPPRLPRPRPRPSPRPRP
shrunken log2 fold change: 0.633

RRIRPRPPRLPRPRPRPSPYPRP
shrunken log2 fold change: -0.461

RRIRPRPPRLPRPRPRPSQNPRP
shrunken log2 fold change: -0.107

RRIRPRPPRLPRPRPRPSRLPRP
shrunken log2 fold change: -0.0839

RRIRPRPPRLPRPRPRPSTFPRP
shrunken log2 fold change: 0.147

RRIRPRPPRLPRPRPRPSTRPRP
shrunken log2 fold change: -0.0318

RRIRPRPPRLPRPRPRPSTWPRP
shrunken log2 fold change: 0.0689

RRIRPRPPRLPRPRPRPSYMPRP
shrunken log2 fold change: -0.962

RRIRPRPPRLPRPRPRPSYVPRP
shrunken log2 fold change: -0.127

RRIRPRPPRLPRPRPRPTAPPRP
shrunken log2 fold change: 0.528

RRIRPRPPRLPRPRPRPTAVPRP
shrunken log2 fold change: 0.362

RRIRPRPPRLPRPRPRPTCWPRP
shrunken log2 fold change: 0.349

RRIRPRPPRLPRPRPRPTDEPRP
shrunken log2 fold change: -0.128

RRIRPRPPRLPRPRPRPTDGPRP
shrunken log2 fold change: -0.0563

RRIRPRPPRLPRPRPRPTFGPRP
shrunken log2 fold change: 0.191

RRIRPRPPRLPRPRPRPTHIPRP
shrunken log2 fold change: 0.0811

RRIRPRPPRLPRPRPRPTHYPRP
shrunken log2 fold change: 0.206

RRIRPRPPRLPRPRPRPTITPRP
shrunken log2 fold change: -0.347

RRIRPRPPRLPRPRPRPTKCPRP
shrunken log2 fold change: -0.0849

RRIRPRPPRLPRPRPRPTKLPRP
shrunken log2 fold change: -0.0235

RRIRPRPPRLPRPRPRPTKRPRP
shrunken log2 fold change: 0.265

RRIRPRPPRLPRPRPRPTLEPRP
shrunken log2 fold change: 0.393

RRIRPRPPRLPRPRPRPTLHPRP
shrunken log2 fold change: 0.0853

RRIRPRPPRLPRPRPRPTMVPRP
shrunken log2 fold change: -0.0466

RRIRPRPPRLPRPRPRPTNGPRP
shrunken log2 fold change: 0.191

RRIRPRPPRLPRPRPRPTPRPRP
shrunken log2 fold change: 0.769

RRIRPRPPRLPRPRPRPTQCPRP
shrunken log2 fold change: -0.194

RRIRPRPPRLPRPRPRPTSTPRP
shrunken log2 fold change: -0.0454

RRIRPRPPRLPRPRPRPTTSPRP
shrunken log2 fold change: 0.181

RRIRPRPPRLPRPRPRPTVYPRP
shrunken log2 fold change: -0.296

RRIRPRPPRLPRPRPRPTWLPRP
shrunken log2 fold change: 0.522

RRIRPRPPRLPRPRPRPTYNPRP
shrunken log2 fold change: -0.664

RRIRPRPPRLPRPRPRPVCGPRP
shrunken log2 fold change: 0.208

RRIRPRPPRLPRPRPRPVCYPRP
shrunken log2 fold change: -0.309

RRIRPRPPRLPRPRPRPVDHPRP
shrunken log2 fold change: 0.0611

RRIRPRPPRLPRPRPRPVDWPRP
shrunken log2 fold change: 0.656

RRIRPRPPRLPRPRPRPVGVPRP
shrunken log2 fold change: 0.52

RRIRPRPPRLPRPRPRPVHDPRP
shrunken log2 fold change: -0.115

RRIRPRPPRLPRPRPRPVIPPRP
shrunken log2 fold change: -0.213

RRIRPRPPRLPRPRPRPVKEPRP
shrunken log2 fold change: 0.0267

RRIRPRPPRLPRPRPRPVKQPRP
shrunken log2 fold change: 0.169

RRIRPRPPRLPRPRPRPVLDPRP
shrunken log2 fold change: -0.304

RRIRPRPPRLPRPRPRPVLLPRP
shrunken log2 fold change: 0.00267

RRIRPRPPRLPRPRPRPVMLPRP
shrunken log2 fold change: -0.0771

RRIRPRPPRLPRPRPRPVMTPRP
shrunken log2 fold change: -0.0299

RRIRPRPPRLPRPRPRPVPHPRP
shrunken log2 fold change: 0.0546

RRIRPRPPRLPRPRPRPVPPPRP
shrunken log2 fold change: 0.26

RRIRPRPPRLPRPRPRPVPVPRP
shrunken log2 fold change: 0.136

RRIRPRPPRLPRPRPRPVQRPRP
shrunken log2 fold change: 0.0521

RRIRPRPPRLPRPRPRPVQTPRP
shrunken log2 fold change: 0.00686

RRIRPRPPRLPRPRPRPVQYPRP
shrunken log2 fold change: -0.0191

RRIRPRPPRLPRPRPRPVREPRP
shrunken log2 fold change: 0.605

RRIRPRPPRLPRPRPRPVSAPRP
shrunken log2 fold change: 0.249

RRIRPRPPRLPRPRPRPVSGPRP
shrunken log2 fold change: 0.584

RRIRPRPPRLPRPRPRPVSSPRP
shrunken log2 fold change: -0.0455
